This note sets out measurements from paper doi:10.1101/609503 (bioRxiv, 2019).

The chains are these.
B1: PBP4 (native) (enzyme, E. coli, UniProt P24228 21-477, looked up)
chain: ANVDEYITQLPAGANLALMVQKVGASAPAIDYHSQQMALPASTQKVITALAALIQLGPDFRFTTTLETKGNVENGVLKGDLVARFGADPTLKRQDIRNMVATLKKSGVNQIDGNVLIDTSIFASHDKAPGWPWNDMTQCFSAPPAAAIVDRNCFSVSLYSAPKPGDMAFIRVASYYPVTMFSQVRTLPRGSAEAQYCELDVVPGDLNRFTLTGCLPQRSEPLPLAFAVQDGASYAGAILKDELKQAGITWSGTLLRQTQVNEPGTVVASKQSAPLHDLLKIMLKKSDNMIADTVFRMIGHARFNVPGTWRAGSDAVRQILRQQAGVDIGNTIIADGSGLSRHNLIAPATMMQVLQYIAQHDNELNFISMLPLAGYDGSLQYRAGLHQAGVDGKVSAKTGSLQGVYNLAGFITTASGQRMAFVQYLSGYAVEPADQRNRRIPLVRFESRLYKDIYQNN
B4: His-PBP7 (enzyme, E. coli, UniProt P0AFI5 26-310, looked up)
chain: KTAAATTASQPEIASGSAMIVDLNTNKVIYSNHPDLVRPIASISKLMTAMVVLDARLPLDEKLKVDISQTPEMKGVYSRVRLNSEISRKDMLLLALMSSENRAAASLAHHYPGGYKAFIKAMNAKAKSLGMNNTRFVEPTGLSVHNVSTARDLTKLLIASKQYPLIGQLSTTREDMATFSNPTYTLPFRNTNHLVYRDNWNIQLTKTGFTNAAGHCLVMRTVINNKPVALVVMDAFGKYTHFADASRLRTWIETGKVMPVPAAALSYKKQKAAQMAAAGQTAQND

The target of one series is T1, PBP1A (E. coli, UniProt P02918 1-850, NT647 RED-NHS dye on amines (fl-PBP1A)).
T1 sequence (looked up): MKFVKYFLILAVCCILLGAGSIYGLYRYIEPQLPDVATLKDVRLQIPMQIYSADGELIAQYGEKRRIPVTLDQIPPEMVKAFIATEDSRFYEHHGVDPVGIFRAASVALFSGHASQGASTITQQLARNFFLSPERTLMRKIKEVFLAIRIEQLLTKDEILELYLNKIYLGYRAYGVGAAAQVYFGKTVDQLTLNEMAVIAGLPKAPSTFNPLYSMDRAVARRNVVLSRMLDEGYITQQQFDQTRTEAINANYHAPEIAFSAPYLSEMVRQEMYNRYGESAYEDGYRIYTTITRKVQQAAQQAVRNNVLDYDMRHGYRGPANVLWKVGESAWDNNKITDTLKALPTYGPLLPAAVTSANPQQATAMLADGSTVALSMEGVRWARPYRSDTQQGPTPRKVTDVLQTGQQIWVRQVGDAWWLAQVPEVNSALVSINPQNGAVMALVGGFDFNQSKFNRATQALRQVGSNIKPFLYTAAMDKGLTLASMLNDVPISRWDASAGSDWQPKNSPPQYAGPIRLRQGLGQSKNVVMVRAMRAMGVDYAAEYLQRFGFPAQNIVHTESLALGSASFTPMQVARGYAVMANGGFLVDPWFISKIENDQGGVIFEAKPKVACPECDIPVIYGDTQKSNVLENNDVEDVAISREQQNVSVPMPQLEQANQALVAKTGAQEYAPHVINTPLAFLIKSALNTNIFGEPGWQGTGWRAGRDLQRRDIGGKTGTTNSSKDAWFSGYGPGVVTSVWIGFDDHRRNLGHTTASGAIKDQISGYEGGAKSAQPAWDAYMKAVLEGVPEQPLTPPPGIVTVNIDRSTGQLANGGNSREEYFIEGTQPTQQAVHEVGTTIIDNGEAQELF
The experiment in a line: MST.

In series [1] the target is preformed NlpI-PBP4 complex (E. coli, UniProt P0AFB1 19-294; P24228 21-477). The experiment in a line: MST.
Series [2] concerns the target B1. Description: MST.
Series [3] addresses B1. The experiment in a line: pull-down.
The series “AUC” concerns the molecule itself. The experiment in a line: AUC.
The series “MST” deals with the molecule itself. The experiment in a line: MST.
The target in the next series is T2, MepM (E. coli, UniProt P0AFS9 41-440).
T2 sequence (looked up): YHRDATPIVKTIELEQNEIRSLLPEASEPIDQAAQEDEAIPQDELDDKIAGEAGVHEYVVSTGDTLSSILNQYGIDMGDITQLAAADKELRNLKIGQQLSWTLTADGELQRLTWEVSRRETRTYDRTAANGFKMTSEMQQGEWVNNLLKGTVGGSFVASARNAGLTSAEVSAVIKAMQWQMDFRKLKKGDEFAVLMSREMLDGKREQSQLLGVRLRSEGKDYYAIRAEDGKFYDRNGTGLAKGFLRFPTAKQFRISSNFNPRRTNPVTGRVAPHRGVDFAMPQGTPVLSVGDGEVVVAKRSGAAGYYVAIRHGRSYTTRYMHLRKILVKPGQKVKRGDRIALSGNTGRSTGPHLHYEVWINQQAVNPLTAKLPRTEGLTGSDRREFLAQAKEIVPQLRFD
Description: MST.

The target of the series “His-PBP7” is B4. Description: pull-down.

Take B1: in the series with PBP1A, the Kd turned out to be 106 nM.

B2: LpoA (natural protein, E. coli, UniProt P45464 27-678, looked up)
chain: CGTHTPDQSTAYMQGTAQADSAFYLQQMQQSSDDTRINWQLLAIRALVKEGKTGQAVELFNQLPQELNDAQRREKTLLAVEIKLAQKDFAGAQNLLAKITPADLEQNQQARYWQAKIDASQGRPSIDLLRALIAQEPLLGAKEKQQNIDATWQALSSMTQEQANTLVINADENILQGWLDLQRVWFDNRNDPDMMKAGIADWQKRYPNNPGAKMLPTQLVNVKAFKPASTNKIALLLPLNGQAAVFGRTIQQGFEAAKNIGTQPVAAQVAAAPAADVAEQPQPQTVDGVASPAQASVSDLTGEQPAAQPVPVSAPATSTAAVSAPANPSAELKIYDTSSQPLSQILSQVQQDGASIVVGPLLKNNVEELLKSNTPLNVLALNQPENIENRVNICYFALSPEDEARDAARHIRDQGKQAPLVLIPRSSLGDRVANAFAQEWQKLGGGTVLQQKFGSTSELRAGVNGGSGIALTGSPITLRATTDSGMTTNNPTLQTTPTDDQFTNNGGRVDAVYIVATPGEIAFIKPMIAMRNGSQSGATLYASSRSAQGTAGPDFRLEMEGLQYSEIPMLAGGNLPLMQQALSAVNNDYSLARMYAMGVDAWSLANHFSQMRQVQGFEINGNTGSLTANPDCVINRNLSWLQYQQGQVVPVS
modifications: NT647 RED-Maleimide dye on cysteines where used as the labelled partner (fl-LpoA)
As for B2, in series [1], the binding result is “binds”.

B3: PBP7 (enzyme, E. coli, UniProt P0AFI5 26-310, looked up)
chain: KTAAATTASQPEIASGSAMIVDLNTNKVIYSNHPDLVRPIASISKLMTAMVVLDARLPLDEKLKVDISQTPEMKGVYSRVRLNSEISRKDMLLLALMSSENRAAASLAHHYPGGYKAFIKAMNAKAKSLGMNNTRFVEPTGLSVHNVSTARDLTKLLIASKQYPLIGQLSTTREDMATFSNPTYTLPFRNTNHLVYRDNWNIQLTKTGFTNAAGHCLVMRTVINNKPVALVVMDAFGKYTHFADASRLRTWIETGKVMPVPAAALSYKKQKAAQMAAAGQTAQND
modifications: NT647 RED-NHS dye on amines where used as the labelled partner (fl-PBP7)
The molecule B3 showed a Kd with PBP1A of 101 nM. For the same molecule, the binding result with PBP4 (native) [2] is “binds”.
Regarding B4, the binding result with PBP4 (native) [3] is “binds”.

B5: NlpI (soluble version, residues 19-294) (natural protein, E. coli, UniProt P0AFB1 19-294, looked up)
chain: CSNTSWRKSEVLAVPLQPTLQQEVILARMEQILASRALTDDERAQLLYERGVLYDSLGLRALARNDFSQALAIRPDMPEVFNYLGIYLTQAGNFDAAYEAFDSVLELDPTYNYAHLNRGIALYYGGRDKLAQDDLLAFYQDDPNDPFRSLWLYLAEQKLDEKQAKEVLKQHFEKSDKEQWGWNIVEFYLGNISEQTLMERLKADATDNTSLAEHLSETNFYLGKYYLSLGDLDSATALFKLAVANNVHNFVEHRYALLELSLLGQDQDDLAESDQQ
modifications: NT647 RED-NHS dye on amines where used as the labelled partner (fl-NlpI)
Consider B5, for which, in “AUC”, the “stoichiometry N” value amounted to 2. In addition, the Kd turned out to be 126 nM in the series “MST”, 177 nM with PBP4 (native) [2] and 152 nM with MepM.

B6: tagless NlpI (natural protein)
chain: CSNTSWRKSEVLAVPLQPTLQQEVILARMEQILASRALTDDERAQLLYERGVLYDSLGLRALARNDFSQALAIRPDMPEVFNYLGIYLTQAGNFDAAYEAFDSVLELDPTYNYAHLNRGIALYYGGRDKLAQDDLLAFYQDDPNDPFRSLWLYLAEQKLDEKQAKEVLKQHFEKSDKEQWGWNIVEFYLGNISEQTLMERLKADATDNTSLAEHLSETNFYLGKYYLSLGDLDSATALFKLAVANNVHNFVEHRYALLELSLLGQDQDDLAESDQQ
Regarding B6, in the series with His-PBP7, the binding result is listed as “binds”.

B7: MepS(C68A) (enzyme, E. coli, UniProt P0AFV4 27-188, looked up)
chain: CSANNTAKNMHPETRAVGSETSSLQASQDEFENLVRNVDVKSRIMDQYADWKGVRYRLGGSTKKGIDASGFVQRTFREQFGLELPRSTYEQQEMGKSVSRSNLRTGDLVLFRAGSTGRHVGIYIGNNQFVHASTSSGVIISSMNEPYWKKRYNEARRVLSRS
For the molecule B7, the Kd with PBP1A is 91 nM.

What is called Kd is the constant that tells how readily two partners part at equilibrium. High values mean lower affinity, low ones higher affinity. For orientation: stoichiometry N means a count of units in the complex or per binding partner.
